The values below come from the DeepSol protein solubility set.

The data set can be described thus: soluble on expression in E. coli; label from the status in PepcDB or PDB records.
On to “GYALTEGEDYLVLDKPIPQEQSGKIEVLEFFGYFCVHCHHFDPLLLKLGKALPSDAYLRTEHVVWQPEMLGLARMAAAVNLSGLKYQANPAVFKAVYEQKIRLENRSVAGKWALSQKGFDGKKLMRAYDSPEAAAAALKMQKLTEQYRIDSTPTVIVGGKYRVIFNNGFDGGVHTIKELVAKVREERKRQTPAVQK”, for which the “soluble on expression in E. coli” value was “soluble”. Take “MRGSHHHHHHTDPALRADLSLLKALSEADAIASSEQEVRQILLEEADRLQKEVRFDGLGSVLIRLNESTGPKVMICAHMDEVGFMVRSISREGAIDVLPVGNVRMAARQLQPVRITTREECKIPGLLDGDRQGNDVSAMRVDIGARSYDEVMQAGIRPGDRVTFDTTFQVLPHQRVMGKAFDDRLGCYLLVTLLRELHDAELPAEVWLVASSSEEVGLRGGQTATRAVSPDVAIVLDTACWAKNFDYGAANHRQIGNGPMLVLSDKSLIAPPKLTAWVETVAAEIGVPLQADMFSNGGTDGGAVHLTGTGVPTVVMGPATRHGHCAASIADCRDILQMQQLLSALIQRLTRETVVQLTDFRGLCGR”: the “soluble on expression in E. coli” value was “soluble”. Under “MGSDKIHHHHHHMKAVIFDDFGSPDVLRIADVQRPVATTATVLVKVMAVAVNHVDTFVRSGTFKTALAAPHVAGRDLVGEVVASSQPDFQIGDQVWTNSMGYEGRMGATAEYVAVPTDRLYHVPDGVAPMPLVAAVHSAATAAIVLNDVMEICSGQTLLIEGAAGNVGRKLIQLAHQMGVTVVITASPRDFARCQQLGSTACYDYHAGFADQLTTDQWTFDHVIDTSGRVPLAINLALLRLGGQVTLITAPQDNQFEFPVRQFYMSQQRITGFVISHATVDQLAQAASRLNRAFSAGLLLDDQVSQRYFKDAAQCHAQLEAGTDHHQRFVLLPS” stands “not soluble”; under “MAHHHHHHMRSSQFLLSGLRRTAILMTISDEYIPRAFPVKSTTGLAGIAVEPLWKPKLLAAASELQAFLTSSDIPPESTYYNIAMTLVKRVNHGIKECQDDWCTLEKRYFWGWPVEYILQVTWRELETAQKWNEWRFWELDPEQVKKVAREDQNIGREGLGYNSPWEQVVREDFDKRKKALTQEEMAELKRMDTERMARETAAYKERKDRIRDDLEKARGDMLKKFLNKRFAVDKDLQRMQPGKRYSGKTADDLIAELKSSVENNPQKSDLGK”, “not soluble”; under “MGSDKIHHHHHHMVAVPQAHPLSVAEYLQFEAASEIKHEYRAGEVYAMADITDVHNTIVGNWVALIRSHVRGSSDRVYCSAMQVWLQQANCIYYPDLLVTCDPRDQETVNYKRFPKLIVEVLSPSTEAFDRGDKFADYQTLETLEEYVLISTSRQRVDCFRRSLEGVWTLQFYLPNAEVLPLRSIGLEVRLSDLYEDVTLPAPPSIPESLEESR”, “not soluble”.

With “MSDTPKYTQDQVIAIKNRILEALETVIDPELGIDVVNLGLIYEIRFNDNGYTEIDMTLTTMGCPLADLLTDYIHDALQDVPEVTKTEVKLVWYPAWTVDKMSRYARIALGIR”, the “soluble on expression in E. coli” value was “not soluble”.

In the case of “LDTTRESIRIGDNLGNVINDPISSREIETQNERDNDLINRYYRPDELEKVKVVDFKPIILNLDELDNDELIMALEEKPAYSRTGVLLSRIDNIRMRIAESAGRLKKDVVRSEESERPAFESERSSSPTTISFN”, the “soluble on expression in E. coli” value is “not soluble”. With “MGSDKIHHHHHHMKRINRFAVQIDVEGRTELAHLHDPGRLLEIVYPGNEVLVRRTDGPKLKWRIEFGKINGRYVLIDSGLHSDIARRFLPEGAVPEVRVGRKRIDFRYGDDYIEVKGCTLMANGIAMFPDAPTKRGLEHLKTLETLASSGYRSHVMMIITRDDVRCFYPNFETDPKFAEAFLRLVPAYVKAHFLTFGFDGLYLRYAGSIGLCADVGHGTNGRL”, the “soluble on expression in E. coli” value is “not soluble”. With “MGSDKIHHHHHHMYFITLSRQLGTKGTEIAKLVAKELHYDFYDTEAIEKKAGEMGFLDDIRKVDDKPPSPLKQLFSWQTETCLEHLYTVIYDLSRYGNAVVLGRGGNMLFRPIPHALHVRVIASHEKRVQNLLEKVYRRETAVMIMEKSDQERSSFIRFAFNRDWGDPELYDMVLNMDNMTVRSAADTILRAARLRESQCPSRDGMSPLNLMELTAKVKAALANAGFPSNYASPFVNAPGKVRLTGIVHDPREKLAAEMTALKVEGVESVENRIQIAGS” the entry was “not soluble”; with “SLQQSAKKNAAPAPAAQPAPAPTQPQADGAQQAGWVVRCTSVSRDAPLECAMEQNAVLTKTGQTIVLINIRIAPDTRTPVALLQLPLGLNLPIGAKLQVDEGKTVDLQIQTCENRGCYASTPIAADLLAALRSGKQLKVSFQNMAKETIAIPMPLGDFAAAYDKIK”, “not soluble”. With “MAPLKRRKVSAPTGNENTPRSTRSIRHKREDPRGKMKPLATSTRTSSVNKKKKNDDDYENFYSGENTITTMKPVVFPKKPVIFEHGYGIEDDIEDEIDDEELDDEEYEESGNGNEDEVEEEVGVEEQEIENNFAYKKVKSEISCSPFLKEHSVHSVLTNNRAKTGTIDSKAGRTAYRKQKLREGTCCSQSNEATGDSTDRSSTSAGFDVFQHLQNRAVQKTMIEQLESAVRNQDVMEMGNVVKKGLENGTLSEIQIEEFCKHTTRPNFSILQFVQALRQSTEDEKESIQIAQMMMFKMQDPKDGNYTALAANVHTLTSKISKQLNAGCIVKRTLTMNHTISQADGFPTCNLTDIYNSELLIGGDAVSQLSNFYMVALKTMLEPSYKIWAFTYRPSCVRRVDRHFQELPQKVTTAIIEVAFDIVGVYLPVELSYGSIDREHEFIKTLGEGAELEVQRRRDERITVFKNAVEALGKAMNNLRTYHFDIAKGALFNCNKPSYCEHHLKWGQVRKFREQHQRMETSPEEVIRFATGQRNEHDVSAAGRSVKDSTH” the entry was “not soluble”; with “MSLENVDPFDIIRQFRSVIAKTSLQASSNIEGLDTVWNSDLVLEANFWHLVEILLSFRTSQEFLDKESSISSKPYNSSIIFEKELLQKDKNLYQIWLIIVWIEGNFPFVEKPSNIPSSKWTNTLVTSGLMSSDLDYPLRDCSVVINDKDKADDHVFYKYVYELLLCGNYDQIFEECKLSDNITLNMIMCGMQEYVDPSIDVQLKDEFEVQQGVKKHSLWRRAVYSLSQNDKLDKYERAIYSYLAGDIPNDEVLQTLNWDSELLVYLNQILKIEVENYLLQNGKVNNDELILSLPSNTMDLQSILNLLSAKHPEESEHPIRVLIGSVMLNTIPSVLHSSVSMLMNVVTGIENDNDIFGEPYLLRVVTHMTIFLEILNPGTISESDKTKLITAYISILKSQELYDLIPIYISFLSHNEAIEASSFILSNLEGKDIRKKQLEICNFLKLPVEDMLKRTTQCVFAETEGHHHHHH”, “not soluble”; with “MNNIENVDQKLIENLANLMSSEVRAKIYIYLRKYNKSTVDEIAGGTGIYPSTVRESILDMYNTGYVSREKMDKEGLGKKPYLYTAAAPSEIVRKISKNIQEKLNDLIMVDRRIESKELKIPFVPVKIVVDEKYRD”, “not soluble”. For “MNHVAVIGGGIIGASWAVVFARRGLEVTIVERDAACLAGLPARLAGMIERSASLLGAGEQPGDVAARIGATDALAAAVGRADYVQEAVSENLALKRTLFAELDALAPAHALLASSTSTYGASQFTEALAGRARCLVAHPMTPPHLSPVVEMAASAWTDPQVLAGAEAFMRSLGQHPVRIRKEIPGFVLNRLQGALLMEMFRVIADDVISPADADALISQGLGLRWATLGPLEGVDLNAPGGIADYLQRYGHIFNDMAVGQGLPAPVDAELISALDGAMRAALPLERLEAKRGWRDRAIAGVRVALHDYTGEKPLEHHHHHH”, the “soluble on expression in E. coli” value is given as “not soluble”. “MSAEGLDKDFCGAIIPDSFFPIEKLRNYTDMGIIREFAKGSAIIMPGEDTTSMIFLMDGKIKLDIIFEDGSEKLLYYAGSNSLIGRLYPTGNNIYATAMEQTRTCWFSEECLRVIFRTDEDMIFEIFKNYLTKVAYYARQVAEINTYNPTIRILRLFYELCSSQGKRVGDTYEITMPLSQKSIGEITGAHHVTVSKVLACLKKENILDKKKNKFIVYNLEELKHLSEQTSYY”: the “soluble on expression in E. coli” value is listed as “soluble”. “TRGHGLFRITLVERDGPVGAGIAYATREAEHLLNTRVHNMSAFPDRPDHFRQWLAAEPEGRFSTGDSFVPRGLYRRYLEEILAPWRAGAQLTCVGGECLRIEEVGRGVIAHFSDGSVRLADVAILATGHPRPDPAEDRLLQDPWRAADVPPDARVVLLGSGLTMIDKVLTLLANGHRGEI”: the “soluble on expression in E. coli” value is given as “not soluble”.
